B1: SPAM1-VCIA: C-terminally truncated human PH20, precursor 460 aa (SEQ ID NO:38), mature 425 aa (SEQ ID NO:90) (protein, listed as Homo sapiens)
chain 1: MGVLKFKHIFFRSFVKSSGVSQIVFTFLLIPCCLTLNFRAPPVIPNVPFLWAWNAPSEFCLGKFDEPLDMSLFSFIGSPRINATGQGVTIFYVDRLGYYPYIDSITGVTVNGGIPQKISLQDHLDKAKKDITFYMPVDNLGMAVIDWEEWRPTWARNWKPKDVYKNRSIELVQQQNVQLSLTEATEKAKQEFEKAGKDFLVETIKLGKLLRPNHLWGYYLFPDCYNHHYKKPGYNGSCFNVEIKRNDDLSWLWNESTALYPSIYLNTQQSPVAATLYVRNRVREAIRVSKIPDAKSPLPVFAYTRIVFTDQVLKFLSQDELVYTFGETVALGASGIVIWGTLSIMRSMKSCLLLDNYMETILNPYIINVTLAAKMCSQVLCQEQGVCIRKNWNSSDYLHLNPDNFAIQLEKGGKFTVRGKPTLEDLEQFSEKFYCSCYSTLSCKEKADVKDTDAVDVCIA
chain 2: LNFRAPPVIPNVPFLWAWNAPSEFCLGKFDEPLDMSLFSFIGSPRINATGQGVTIFYVDRLGYYPYIDSITGVTVNGGIPQKISLQDHLDKAKKDITFYMPVDNLGMAVIDWEEWRPTWARNWKPKDVYKNRSIELVQQQNVQLSLTEATEKAKQEFEKAGKDFLVETIKLGKLLRPNHLWGYYLFPDCYNHHYKKPGYNGSCFNVEIKRNDDLSWLWNESTALYPSIYLNTQQSPVAATLYVRNRVREAIRVSKIPDAKSPLPVFAYTRIVFTDQVLKFLSQDELVYTFGETVALGASGIVIWGTLSIMRSMKSCLLLDNYMETILNPYIINVTLAAKMCSQVLCQEQGVCIRKNWNSSDYLHLNPDNFAIQLEKGGKFTVRGKPTLEDLEQFSEKFYCSCYSTLSCKEKADVKDTDAVDVCIA
modifications: HuPH20 precursor 1-460; Mature HuPH20 36-460
B2: SPAM1-DAVD: C-terminally truncated human PH20, precursor 456 aa (SEQ ID NO:40), mature 421 aa (SEQ ID NO:92) (protein, listed as Homo sapiens)
chain 1: MGVLKFKHIFFRSFVKSSGVSQIVFTFLLIPCCLTLNFRAPPVIPNVPFLWAWNAPSEFCLGKFDEPLDMSLFSFIGSPRINATGQGVTIFYVDRLGYYPYIDSITGVTVNGGIPQKISLQDHLDKAKKDITFYMPVDNLGMAVIDWEEWRPTWARNWKPKDVYKNRSIELVQQQNVQLSLTEATEKAKQEFEKAGKDFLVETIKLGKLLRPNHLWGYYLFPDCYNHHYKKPGYNGSCFNVEIKRNDDLSWLWNESTALYPSIYLNTQQSPVAATLYVRNRVREAIRVSKIPDAKSPLPVFAYTRIVFTDQVLKFLSQDELVYTFGETVALGASGIVIWGTLSIMRSMKSCLLLDNYMETILNPYIINVTLAAKMCSQVLCQEQGVCIRKNWNSSDYLHLNPDNFAIQLEKGGKFTVRGKPTLEDLEQFSEKFYCSCYSTLSCKEKADVKDTDAVD
chain 2: LNFRAPPVIPNVPFLWAWNAPSEFCLGKFDEPLDMSLFSFIGSPRINATGQGVTIFYVDRLGYYPYIDSITGVTVNGGIPQKISLQDHLDKAKKDITFYMPVDNLGMAVIDWEEWRPTWARNWKPKDVYKNRSIELVQQQNVQLSLTEATEKAKQEFEKAGKDFLVETIKLGKLLRPNHLWGYYLFPDCYNHHYKKPGYNGSCFNVEIKRNDDLSWLWNESTALYPSIYLNTQQSPVAATLYVRNRVREAIRVSKIPDAKSPLPVFAYTRIVFTDQVLKFLSQDELVYTFGETVALGASGIVIWGTLSIMRSMKSCLLLDNYMETILNPYIINVTLAAKMCSQVLCQEQGVCIRKNWNSSDYLHLNPDNFAIQLEKGGKFTVRGKPTLEDLEQFSEKFYCSCYSTLSCKEKADVKDTDAVD
modifications: HuPH20 precursor 1-456; Mature HuPH20 36-456
B3: SPAM1-DTDA: C-terminally truncated human PH20, precursor 454 aa (SEQ ID NO:41), mature 419 aa (SEQ ID NO:93) (protein, listed as Homo sapiens)
chain 1: MGVLKFKHIFFRSFVKSSGVSQIVFTFLLIPCCLTLNFRAPPVIPNVPFLWAWNAPSEFCLGKFDEPLDMSLFSFIGSPRINATGQGVTIFYVDRLGYYPYIDSITGVTVNGGIPQKISLQDHLDKAKKDITFYMPVDNLGMAVIDWEEWRPTWARNWKPKDVYKNRSIELVQQQNVQLSLTEATEKAKQEFEKAGKDFLVETIKLGKLLRPNHLWGYYLFPDCYNHHYKKPGYNGSCFNVEIKRNDDLSWLWNESTALYPSIYLNTQQSPVAATLYVRNRVREAIRVSKIPDAKSPLPVFAYTRIVFTDQVLKFLSQDELVYTFGETVALGASGIVIWGTLSIMRSMKSCLLLDNYMETILNPYIINVTLAAKMCSQVLCQEQGVCIRKNWNSSDYLHLNPDNFAIQLEKGGKFTVRGKPTLEDLEQFSEKFYCSCYSTLSCKEKADVKDTDA
chain 2: LNFRAPPVIPNVPFLWAWNAPSEFCLGKFDEPLDMSLFSFIGSPRINATGQGVTIFYVDRLGYYPYIDSITGVTVNGGIPQKISLQDHLDKAKKDITFYMPVDNLGMAVIDWEEWRPTWARNWKPKDVYKNRSIELVQQQNVQLSLTEATEKAKQEFEKAGKDFLVETIKLGKLLRPNHLWGYYLFPDCYNHHYKKPGYNGSCFNVEIKRNDDLSWLWNESTALYPSIYLNTQQSPVAATLYVRNRVREAIRVSKIPDAKSPLPVFAYTRIVFTDQVLKFLSQDELVYTFGETVALGASGIVIWGTLSIMRSMKSCLLLDNYMETILNPYIINVTLAAKMCSQVLCQEQGVCIRKNWNSSDYLHLNPDNFAIQLEKGGKFTVRGKPTLEDLEQFSEKFYCSCYSTLSCKEKADVKDTDA
modifications: HuPH20 precursor 1-454; Mature HuPH20 36-454
B4: SPAM1-VKDT: C-terminally truncated human PH20, precursor 452 aa (SEQ ID NO:42), mature 417 aa (SEQ ID NO:94) (protein, listed as Homo sapiens)
chain 1: MGVLKFKHIFFRSFVKSSGVSQIVFTFLLIPCCLTLNFRAPPVIPNVPFLWAWNAPSEFCLGKFDEPLDMSLFSFIGSPRINATGQGVTIFYVDRLGYYPYIDSITGVTVNGGIPQKISLQDHLDKAKKDITFYMPVDNLGMAVIDWEEWRPTWARNWKPKDVYKNRSIELVQQQNVQLSLTEATEKAKQEFEKAGKDFLVETIKLGKLLRPNHLWGYYLFPDCYNHHYKKPGYNGSCFNVEIKRNDDLSWLWNESTALYPSIYLNTQQSPVAATLYVRNRVREAIRVSKIPDAKSPLPVFAYTRIVFTDQVLKFLSQDELVYTFGETVALGASGIVIWGTLSIMRSMKSCLLLDNYMETILNPYIINVTLAAKMCSQVLCQEQGVCIRKNWNSSDYLHLNPDNFAIQLEKGGKFTVRGKPTLEDLEQFSEKFYCSCYSTLSCKEKADVKDT
chain 2: LNFRAPPVIPNVPFLWAWNAPSEFCLGKFDEPLDMSLFSFIGSPRINATGQGVTIFYVDRLGYYPYIDSITGVTVNGGIPQKISLQDHLDKAKKDITFYMPVDNLGMAVIDWEEWRPTWARNWKPKDVYKNRSIELVQQQNVQLSLTEATEKAKQEFEKAGKDFLVETIKLGKLLRPNHLWGYYLFPDCYNHHYKKPGYNGSCFNVEIKRNDDLSWLWNESTALYPSIYLNTQQSPVAATLYVRNRVREAIRVSKIPDAKSPLPVFAYTRIVFTDQVLKFLSQDELVYTFGETVALGASGIVIWGTLSIMRSMKSCLLLDNYMETILNPYIINVTLAAKMCSQVLCQEQGVCIRKNWNSSDYLHLNPDNFAIQLEKGGKFTVRGKPTLEDLEQFSEKFYCSCYSTLSCKEKADVKDT
modifications: HuPH20 precursor 1-452; Mature HuPH20 36-452
B5: SPAM1-VDVC: C-terminally truncated human PH20, precursor 458 aa (SEQ ID NO:39), mature 423 aa (SEQ ID NO:91) (protein, listed as Homo sapiens)
chain 1: MGVLKFKHIFFRSFVKSSGVSQIVFTFLLIPCCLTLNFRAPPVIPNVPFLWAWNAPSEFCLGKFDEPLDMSLFSFIGSPRINATGQGVTIFYVDRLGYYPYIDSITGVTVNGGIPQKISLQDHLDKAKKDITFYMPVDNLGMAVIDWEEWRPTWARNWKPKDVYKNRSIELVQQQNVQLSLTEATEKAKQEFEKAGKDFLVETIKLGKLLRPNHLWGYYLFPDCYNHHYKKPGYNGSCFNVEIKRNDDLSWLWNESTALYPSIYLNTQQSPVAATLYVRNRVREAIRVSKIPDAKSPLPVFAYTRIVFTDQVLKFLSQDELVYTFGETVALGASGIVIWGTLSIMRSMKSCLLLDNYMETILNPYIINVTLAAKMCSQVLCQEQGVCIRKNWNSSDYLHLNPDNFAIQLEKGGKFTVRGKPTLEDLEQFSEKFYCSCYSTLSCKEKADVKDTDAVDVC
chain 2: LNFRAPPVIPNVPFLWAWNAPSEFCLGKFDEPLDMSLFSFIGSPRINATGQGVTIFYVDRLGYYPYIDSITGVTVNGGIPQKISLQDHLDKAKKDITFYMPVDNLGMAVIDWEEWRPTWARNWKPKDVYKNRSIELVQQQNVQLSLTEATEKAKQEFEKAGKDFLVETIKLGKLLRPNHLWGYYLFPDCYNHHYKKPGYNGSCFNVEIKRNDDLSWLWNESTALYPSIYLNTQQSPVAATLYVRNRVREAIRVSKIPDAKSPLPVFAYTRIVFTDQVLKFLSQDELVYTFGETVALGASGIVIWGTLSIMRSMKSCLLLDNYMETILNPYIINVTLAAKMCSQVLCQEQGVCIRKNWNSSDYLHLNPDNFAIQLEKGGKFTVRGKPTLEDLEQFSEKFYCSCYSTLSCKEKADVKDTDAVDVC
modifications: HuPH20 precursor 1-458; Mature HuPH20 36-458

Experiments:
[1] = system: CHO-S cells; assay: Western blot analysis of PH20 expression in media and cells after transient expression; assay type: cell-based, Chinese Hamster; settings: media versus cells
Method: The mutant PH20-HZ24 plasmids generated in Example 1 were transiently […] into CHO—S cells (derived from Chinese Hamster Ovary CHO K1 cells) using GeneJuice® (Novagen) according to the manufacturer's instructions. In short, the CHO—S cells were grown in CD CHO medium supplemented with L-glutamine. Prior to transfection, the CHO—S cells were plated in 6-well plates, with approximately 5×10^5 cells per well, and grown overnight at 37° C. with 5% CO2. The medium was then removed and the CHO—S cells were washed 2 times with 1 mL serum-free medium. GeneJuice® was mixed with serum-free media followed by the addition of 2 μg mutant-HZ24 DNA. After incubating at room temperature for 5-15 minutes, the GeneJuice®/DNA mixture was added dropwise to an individual well containing the washed CHO—S cells. After 4 hours, the medium was replaced with 1 mL CD-CHO medium supplemented with L-glutamine and the cells were incubated for 72 hours at 37° C. with 5% CO2. Following expression, the media and cells were harvested separately.
The mutant PH20-HZ24 plasmids generated in Example 1 were transiently […] into CHO—S cells using GeneJuice® (Novagen) according to the manufacturer's instructions. […]
In this example, following transient expression, as described in Example 2 above, the media and cells were harvested separately and analyzed for PH20 expression and solublility by Western blot analysis. Solubility of the C-terminus truncation mutants was determined by examining whether the expressed protein was present in the growth media or in the cells. […] Cells expressing these mutants were treated with phosphoinositol-phospholipase C (PI-PLC), which cleaves the GPI-anchor allowing the release of soluble protein into the media, and the presence of PH20 in the resulting media and cells was determined by Western blot analysis.
Non-reduced samples were run on a 4-20% Tris-Glycine gel and transferred to PVDF membrane using iBlot (Invitrogen). For the Western blot, rabbit anti-PH20 IgG (0.5 μg/mL) was used as the primary antibody and HRP-conjugated goat anti-rabbit IgG (0.1 ng/mL, Cat#DC03L, EMD) was used as the secondary antibody. Evidence of expression is determined by a band at approximately 66 kDa, corresponding to recombinant human PH20 hyaluronidase.

[2] = Microtiter hyaluronidase activity assay with biotinylated-hyaluronic acid; assay type: biochemical; settings: Table 6, 72 hour post transfection supernatant

| Molecule | Expressed in Media [1] | pH 5.5 Activity [2] [Units/ml] | pH 7.4 Activity [2] [Units/ml] |
| --- | --- | --- | --- |
| B1 | YES | 0.0135 | 0 |
| B2 | YES | 0.0675 | 0 |
| B3 | YES | 0.054 | 0 |
| B4 | YES | 0.0225 | 0.054 |
| B5 | YES | 0.0585 | 0.0495 |

Source: US9284543B2, “Neutral active soluble truncated PH20 polypeptides and uses thereof” (Halozyme, Inc., priority 2008, dated 2016)
